pKd: −log10 of the molar value.

As a reminder, the pKd is the Kd on a negative log10 scale, so that one unit is a factor of ten. Higher therefore signals a small Kd.

For this assay, the target named is Salmonella FraB deglycase, wild type (Salmonella enterica). Description: native MS.

In turn, “Salmonella FraB deglycase, wild type (enzyme)” had a pKd of 7.20 to 7.51.

For the origin of these results see publication PMC6885551.
